Reference: article PMC5994690, “Virulence Associated Gene 8 of Bordetella pertussis Enhances Contact System Activity by Inhibiting the Regulatory Function of Complement Regulator C1 Inhibitor” (Frontiers in Immunology, 2018)

B1: Full length complement regulator C1 inhibitor (C1-INHFL), serum-derived (natural protein, UniProt P05155 23-500, looked up)
chain: NPNATSSSSQDPESLQDRGEGKVATTVISKMLFVEPILEVSSLPTTNSTTNSATKITANTTDEPTTQPTTEPTTQPTIQPTQPTTQLPTDSPTQPTTGSFCPGPVTLCSDLESHSTEAVLGDALVDFSLKLYHAFSAMKKVETNMAFSPFSIASLLTQVLLGAGENTKTNLESILSYPKDFTCVHQALKGFTTKGVTSVSQIFHSPDLAIRDTFVNASRTLYSSSPRVLSNNSDANLELINTWVAKNTNNKISRLLDSLPSDTRLVLLNAIYLSAKWKTTFDPKKTRMEPFHFKNSVIKVPMMNSKKYPVAHFIDQTLKAKVGQLQLSHNLSLVILVPQNLKHRLEDMEQALSPSVFKAIMEKLEMSKFQPTLLTLPRIKVTTSQDMLSIMEKLEFFDFSYDLNLCGLTEDPDLQVSAMQHQTVLELTETGVEAAAASAISVARTLLVFEVQQPFLFVLWDQQHKFPVFMGRVYDPRA
modifications: glycosylated (58 kDa protein/28 kDa sugar by SEC-MALS)
notes: Purified from serum (Complement Technology/Complement Technologies, Tyler, TX); source: bought: Complement Technology (serum-derived)
B2: Recombinant his-tag passenger domain of virulence associated gene 8 (Vag8) of Bordetella pertussis (domain or fragment)
chain: VTAAQRIDGGAAFLGDVAIATTKASEHGINVTGRTAEVRVTGGTIRTSGNQAQGLRVGTENAPDNTALGASVFLQNLIIETSGTGALGVSVHEPQGGGGTRLSMSGTTVRTRGDDSFALQLSGPASATLNDVALETAGQQAPAVVLWQGAQLNAQGLVVQVNGAGVSAIHAQDAGSFTLSGSDITARGLEVAGIYVQEGMQGTLTGTRVTTQGDTAPALQVEDAGTHVSMNGGALSTSGANSPAAWLLAGGSAQFRDTVLRTVGEASHGVDVAAHSEVELAHAQVRADGQGAHGLVVTRSSAMVRAGSLVESTGDGAAALLESGHLTVDGSVVHGHGAAGLEVDGESNVSLLNGARLSSDQPTAIRLIDPRSVLNLDIKDRAQLLGDIAPEAQQPDGSPEQARVRVALADGGTWAGRTDGAVHTVRLLDRGVWTVTGDSRVAEVKLEGGTLAFAPPAQPKGAFKTLVATQGISGTGTIVMNAHLPSGTADVLVAPQGFGDRQVLVVNNTDDGTESGATKVPLIEDEQGHTAFTLGNMGGRVDAGARQYELTASEAQADKARTWQLTPTNEL

What was measured:
[1] = biological target: B2; test: SEC-MALS; S200 increase 10/300 column, 50 mM Tris pH 7.5, 150 mM NaCl, 0.4 mL/min; individual proteins and the complex; conditions: both partners purified
[2] = biological target: B1; test: SPR; Biacore T200; Vag8 passenger domain immobilised by amine coupling on a CM5 chip; C1-INH 2.5-160 nM injected at 30 µL/min; 25°C, 10 mM HEPES pH 7.4, 150 mM NaCl, 3 mM EDTA, 0.005% P20; dissociation 300 s; conditions: both partners purified

B1
stoichiometry N [1]: 1

B2
Kd [2]: ≤ 1 nM
